Assay: soluble on expression in E. coli; label from the status in PepcDB or PDB records

Row | Sequence | soluble on expression in E. coli
1 | MAEIPLFPLSNALFPAGVLRLRVFEIRYLDMVRRCIADGSEFGVVVLEQGTEVRRPDGREVLARAGTMARIDHWEAPMPALLELACTGTGRFRLHACTQGKYGLWTGQAEPVPDDAPLEVPPELARSASALGRLIARLQREGVPPHIMPMAAPFRLDDCGWVADRWAEMLSLPPADKARLLLLPPLDRLREIDAVLAADGHALEHHHHHH | soluble
2 | MSIPKQLMIGSVPYEVEVVKGWIDEKENGEVRIAEVTYHEQQIKISDNVAKHEGQMKNVLHEAIHAMLYEYGLDRLNKEVNVNALTTVFFDFIKNNIRGGISSFVGYQYLLLKCPEKTNVEFYDSDTDPATLRFKKETDELSFINTAAELVETINQHPPEVDVSALGVAMAKAEVHKAVDLGVAHEQIQESAVKMTTDKQTRKLPIVDVNRSSFPMEEIAKITKKEETDPIHWKTGIKYDDEGTPRYRTRYECCMCGNRGNQYEYEENKFTKCHKCNAKLKIVQATKNGFPERDAFGNFYVANDEYSVILDGE | not soluble
3 | MNNEAVFSARLSSTQHVGLCRLCNSPLVHTFVDLGMSPPCESFVAADAANDVEPFYPLHAFVCDECFLVQLQEYVAPENIFTEYAYFSSFSDSWVAHAKRYCDMVIERFALGQSSFVVELASNDGYLLQHFLTSNIPMLGIEPAVNVAKVAIGKGIPTLTEFFNEALATDMAARGQKADLIIGNNVLAQVPDINDFVAGMKTLLKPEGVITLEFPHIEKLIAENQFDTIYHEHFSYFSLLTIEKMARRHGLKVFDVEEIPTHGGSLRVFFSHEDIRFPREARVDSLLARELNAGLDKIETYTAFAEAVRQTKRNLLSFLIRLKEMRKSICAYGAPGKGNTLLNYCGIGTDFIDFAVDRNPYKHGRLTPGMHIPIRPVSEIPHMKPDYVLILPWNLKNEIVAQMKDIRNWGGKFIVPIPDISIIDPKELVQ | not soluble
4 | MGHHHHHHSHMKQTAESIRDRFMKLGIDVPVEDIESRLDELIKKFKVPSNEAQRSVTNYFLKKYSIPKNEFYVRQAEPQLTKIVDIVENGQWANLKAKVIQLWENTHESISQVGLLGDETGIIKFTIWKNAELPLLEQGESYLLRSVVVGEYNDRFQVQVNKNSSIEKLSEPIEVGGGDFTPAAREAELRNIADLTGNQWATVRGKVIQLWENSHESIEQAGLIGDETGVIKFTNWASSELPDMEEGRSYLLKNVVVNEWNGKAQVQLNRSSSIEELDEDIEVRTSMSSYFGAMVDIQTGSGLIKRCPECKRALVKGACAEHGKVKGEYDLRIKAVLDSGTSTQDALINRELTEELSGISLDSAIAMAADALDPGVVLDKLKHELVGRYYTITGHKLDRYILVESITPRTSLDRELLDQMLAEPIAQPEVE | soluble
5 | MSLKYQLRFGGEGGQGVITAGEILAEAAIKEGRQAFKASTYTSQVRGGPTKVDIIIDDKEILFPYAVEGEVDFMLSTADKGYKGFRGGVKEGGIIVVEPNLVHPESEDYKKWQIFEIPIITIAKDEVGNVATQSVVALAIAAYMSKCIDLDVLKETMLHMVPAKTRDANAKAFDLGVKYATQAKPHEGHHHHHH | soluble
6 | MSFALGQRWISDTESDLGLGTVVALDARTVTLMFAASEENRVYARSDAPVTRVIFNVGDVVDSQQGWSLQVEQVVEDQGVYTYLGTRVDTEESGVALREIFLSNQIRFNKPQDKLFAGQIDRMDNFVLRY | not soluble
7 | MAHHHHHHMGLTDLFRRETPQERIRMYKRQLDRTCRDLDRERNKLSTQERKIMMEMKKMAKQDQVDAVRIMARDLVRTRKYNQKMYRMRTQIQGVSLRMQTMQSSAQMADAMKGVTKAMRSMNKKMNIPEIQKIMREFEKQNEMMGMKEDMMNDAVDEVMDDDGMEEEETEQEIQKVMDEAGLEFRTKVGVTDTALPQKSTETQGETDEELDARLAALKASMK | soluble
8 | MGSSHHHHHHSSGLVPRGSMGFKVKLEKRRNAINTCLCIGLDPDEKDIENFMKNEKENNYNNIKKNLKEKYINNVSIKKDILLKAPDNIIREEKSEEFFYFFNHFCFYIINETNKYALTFKMNFAFYIPYGSVGIDVLKNVFDYLYELNIPTILDMKINDIGNTVKNYRKFIFEYLKSDSCTVNIYMGTNMLKDICYDEEKNKYYSAFVLVKTTNPDSAIFQKNLSLDNKQAYVIMAQEALNMSSYLNLEQNNEFIGFVVGANSYDEMNYIRTYFPNCYILSPGIGAQNGDLHKTLTNGYHKSYEKILINIGRAITKNPYPQKAAQMYYDQINAILKQNMES | soluble
9 | MACTAADVVEEDLMSDRIANAQLRGKVMSAEEAAQFVNHGDKVGVSGFTGAGYPKALPTAIAERAKEAHARGDEYMIDLFTGASTAPDCDGVLAEADALRFRTPYQSDPILRSKINDGTTLYADYHLSESGIYVEQGFFGQMNVAIVEAVRITEEGHIVPSSSVGNNVEYLDNAEKIIIEVNSWQSEELEGMADIYRMNKLPNRQPIPITEAGQRIGTTYIDIDLSKVVAVVETDAPDRNAPFKPLDETSKQIAGHFLDFLEGEVAAGRLTYDGYVMQSGVGNVPNAVMAGLLDSKFENIKAYTEVIQDGMVDLIDAGKMTVASATSFSLSPEYAERMNAEAKNYAQKIILRPQQISNHPEVVRRLGLICTNGLIEADIYGNVNSTNVTGSRMMNGVGGSADFTRNGFISSFITPSVAKGGDISAFVPFVSHVDHTEQDVKVLISEYGYADLRGLAPRQRVEKIIAIAHPDYRPLLQDYYDRALAFAKEKKIMQTPHLLGEALSFHQRFQETGSMKK | not soluble
10 | MGSDKIHHHHHHMPDAAGGVRVPHPPRPFDRPDRPAARLCRTQQLHPRVPPLERHLAPRLAGTAEPDRALKPQDKSLSKADPMTRLLLLEGNTADKRARGRELGVRSSSEIYAQAIAAHFPRIELDVLNGADEGEAIPHDRSWADYDGFVVTGSSLHAYDREFAVTNQIALVAQAAEHGLPIFGSCWGLQIAVMAAGGEVAYNPRGREVGFARKIALNDAGRAHPMFGAKQHVFDAPCIHYDEVVRMPDGATLLASNGHSLVQAAVIPLGQSEVWAVQYHPEFDLAQLVQLYTLYAADMIAQGFFSNEAELVAYRDKIARLAQDPTDAGLAWQLGIDADVLDPRQRAAEIIAWIESRVLNGT | not soluble
11 | MRWEELSEQPCSLARVLAILGDRWTLLVLRDCFLGVRRFDDFERSLGVTRHVLADRLKRLVEAEILAKVPYQERPLREEYRLTEKGMELYPAILSLVNWGDRHLAGVEGPPLEHVHKHCGQHMHGVLVCSECGEPLHARDVTVREGLFWKGRLLRRG | not soluble
12 | MGLLPTDRWLEEDEGDPLRLCARLAPLFGKMPAREIYSYLRLYGMYRSTRQAERLLPEMKERRLWERLGRLYERQRGIWKGPDVPVFLLPADDENRKLVREFQGKGGVAFADKLFFFLLPDHCDEEIAALVAHEYNHVCRLKQLPNEGEDATLLDAVVMEGLAEHAVAETVGAEQCAGWTKYYTDREMERFWRRYIVPNQHLPVSHPHTSRILYGLGWHPKMGGYAVGYAIVRRCLERGCSLAQLMTMEAKDIAELAGFSGKQQGAS | not soluble
13 | MVNTRPPKIDELLKIDPYLHDFQDEISRRYGVFLDYQRRIEECGGMEEFTSSYKQFGLNVQPDNSVKGLEWAPAAEKLALIGDFNNWDQNANVYKKEEHGKWSITVPAKEDGSCPIPHNSVIKIAVSRHGATHFKLSPWATFVTCPNPKETVIYHQNFWNPPEKYQLKEARPARPASLRIYEAHVGISSSEGKINTYREFADDVLPRIQKQGYNAIQLMAVMEHVYYASFGYQVSNFFAVSSRCGTPEDLKYLVDKAHSLGIFMLLDVVHSHASKNVEDGLNQWDGSNGGYFHDNARGYHNLWDSRLFDYTQTETLRFLLSNVRWWVEEYGFDGFRFDGVSSMIYHSHGMNDDFCGGYPMYFGLNADTDSLVYLMLANDFLHKKYPFMITIAEEVSGMPGICRPVEEGGQGFDYRLAMALPDMWIKILKHTSDEDWKIDDIVFNLENRRYAEKHVAYAESHDQALVGDKTIAFWLMDKEMYDFMSTDSPLTPIIDRGLSLHKLIRLITIGLGGEAWLNFIGNEFGHPEWLDFPRVGNGESFHYARRQFNLVDAEYLRYKFLNNWDREMMLLEERTGFLHKGYAYTSWKHDGDKTIVFERGGLVFVINLHPTKSFADYSIGVNTPGRYRIALNSDESKFGGHNRIDNSIKFHTTDDGYAGRRHRLQVYITCRTAIVLEKEDD | not soluble
14 | MPHWLVIDLEATTAEGGWPLEEMEIIEIGATLVAAADARELDHFQRFVRPVRRPLLTHFCRDLTHISQANVDGAAHLNTVWEAFERWLAQHRPRLAGWASWGDYDRRQLEQEWRQHGLTSQLSEVPHVNLKQRFGEVRQLPRPVGLNAALQLAGMSFQGQQHRALEDARNTARLLPLVLPVEHLEHHHHHH | soluble
15 | MKSIIIAAPHSGSGKTTITVGIMECFRRRGLTVAPFKVGPDFIDPGYHRLVTGLPSANLDGWICPPEFVRASFAHHALNADMAIIEGVMGLFDGFGGIADEGSTAQVARLTGAPVILVVDARGLARSAAAILKGFAEFDPSVRVAGVIFNNVGSDSHERILREAVGQSLPELKVFGCIPRDDGLHIPARHLGLLTAEEHPLSGEFLDHLVEVIRDRVDLGLLWGAANPLGAPVPRAEPIPCQTLGGSVRLAVARDEAFCFVYEDNLCLLRRAGAEIVTFSPLRDERLPEDVAGVYLPGGYPEVFADALAANTGMKESLARAVNEGMPVYAECGGFIYLTRGVTDSAGEPESLHEFVGIFPVTTRMLPRRKALGYREVELAADTIIGPAGTLARGHEFHYSEMEEMPADVERAYRVRRGPVDLGMEGYRYRNCLASYVHLHFGSNPELAAAFVARCRSFVTRSRVLEHHHHHH | not soluble
16 | MGSDKIHHHHHHVSCDYFNRGLCQSCRLMSKPVTEQLLEKEARLTHLLGGLPVDERLAPVSGPEFGFRNKAKMVVMGAAHAPVLGIPGPDGQPVDLSHCPLYPQDMQALLLELTSFVRRAGIPPYRVDKAKGELKFILLTRSAVRGEFMLRFVLRSKDAIPRIERELPKLLADFPAIKVVSVNLQPVHMARLEGEEEIFLTQATRLDEVFNGVPLFIRPKSFFQTNPEVASRLYATAAKWVDELSPKSLWDLFCGVGGFGLHCANESLPVTGIEIEAEAIDCAKTSAAAMGLDNLSFAALDSTDFAMGQQAQEVPEVIIVNPPRRGIGEELCERLSAFGPRAIIYSSCNPETLAKDLALISGYRIARVQLFDMFPHSDHFEVLCLLLKEAACASAD | not soluble
17 | MPTPEKRLRLMQLASNSLPVGGYSWSQGLEWAVEAGWVEDSAAFEHWQQLQMEQSFFAVDLPLLARLYRACEAGDPDSAGRWTAYLLACRETRELRDEERNRGAAFTRLLVDWQPDCPAEWRKLCQQSQLTGMAWLGVRWQISVSDLALSLGYSWIESAVMAGVRLVPYGQLAAQQLIMRLCARYAANMDSALATPDHAIGSATPLASIASARHETQYSRLFRS | not soluble
18 | MGSDKIHHHHHHNGNGDKSLENWIWDAACSIRGAQEAAKYKDFILPLIFTKRLCDVFDDELNRIAEKVGSRAKAFKLVAMDHNLVRFYLPLQPQNPDDPVWSVIRKLSDKIGEKLTDYLREIAKANPLLNGIINRVDFNATTHGQRDLDDDRLSNLIEKISEKRLGLKDVEPDIIGRSYEYLIRKFAEGSGQSAGEFYTPKEVGLIMAKIMQPEPGMTIYDPCCGSAGLLIKCQLVLQESQGATEKFAPLQLYGQEYTPNTWAMANMNMIIHDMEGKIEIGDTFRHPKFMQAGKLAQFERVVANPMWNQKWFTEKDYDGDELGRFPKGAGYPGSSADWGWVQHILASLDKTGKAAIVLDTGAASRGSGNANKNKEKEVRKWFVEQDLIEGVIYLPQNLFYNTSAPGILLFLNRAKPKERQGKLFFINASLVFAKGDPKNYIPDEEIERIANTFLTWREEEKFSLIVYKDKIAHNDYNISPSRYIHITEEEDFRPIAEILEELEVLEKEAAETNK | not soluble

— the DeepSol protein solubility set
